Test results as given in the supplement of paper PMC9170038.

Test system: MS2 coat protein
Assay: apparent KD of MS2 coat protein; higher = weaker reporter binding
Details: Eterna round: R107; input ligand: theophylline 20 uM
In short: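 Binding of SNAP-549-labelled MS2 coat protein was measured on designed RNA switches transcribed on-chip from Illumina sequencing clusters. The protein rose in twofold steps from 0.7 or 1.5 nM to 3 µM, with 0.8–1.5 h per step early on and 10–20 min per step later, in 100 mM Tris-HCl pH 7.5, 80 mM KCl, 4 mM MgCl2, without or with constant ligand. Each design's apparent KD is the median of fits to its normalised cluster binding curves.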

Sequence	apparent KD of MS2 coat protein
CGUACAUGAGGAUCACCCAUGUAGAGUGAUACCAGUCUACCUAGUGACCCUUGGCAGCACAUCGAUGGCAUCGGUGAUGCCGUUU [Atveti]	116 nM
ACAUGAAGAACAGCGGUGGGCGCGCUCGAUACCAGUAUUUUAAAUUACCCUUGGCAGCGACAUGAGGAUCACCCAUGUGAGAUGA [XTheo A #5]	24.8 nM
GGAUAGGACACGGCCGCCACUAGCUAGGAUACUAGCAACAUUUCCUCAGAUGAGGAUCACCCAUCUAGGACCGGGUGUCCUAUCG	36.5 nM
UGUAUGUGAUCUGAUACCAGUCCAACUGGUAAAAGAUGAGGAUCACCCAUCUAAAAUUGGGACCCUUGGCAGCAGAUCGCAUACU	122 nM
UUAUUUAUAUUAGAUACCAGUUUAAUGGCCGCAAAUCCUGACAUGAGGAUCACCCAUGUAAGCCCUUGGCAGCUGGUAUGGGUUU [XTheo B #26]	25.2 nM
GGGUGCGGCACGGCCGCCACUGCGGUGGUGUGACAUGAGGAUCACCCAUGUUGUCAUGCGGCCCUUAGGACCGGGUGCCGUGCCC [#1 Exclusion - Tryptophan B Attempt #13 (HarryS)]	60.9 nM
UAUAGUACCAGACAUGAGGAUCACCCAUGUCGAGGACCGGUACGGCCGCCACUCGGCAGUUUGCGUCCUCAGGUACUCCGGGUCA [Larisotexe]	28.3 nM
AUUUGGCGUAGUGUUGCUCGUGGGAUAAAACGAGGACCGGUACGGCCGCCACUCGAUGAUUAACAUGAGGAUCACCCAUGUAAAU [theeternabot_exclusion_MS2_Trp_A_22]	30.6 nM
AUAACAUGAGGAUCACCCAUGUAAGCUGAAGGAGCGCUGGAAACAGCAGGUAGGUCGCAGCGGCGACCUUCCUCAUGAAGGUCGC [(M1)-(M2)-(Arg1)-(Arg2)-(A)'-(M)'-(A)''_Design5]	25.6 nM
UUGGGUUUGCGAAGGAGCGGGAAAUAUAUAUAUAUAAUCCUAACAUGAGGAUCACCCAUGUCCCAGGUAGGUCGCGCAGGUUUGG [12.L]	81.8 nM
CCCAGUCAUAACAAAGCAAAUAUACUCGAAGGAGCGUCAUAGUAGGCAGGUAGGUCGCGAGACAUGAGGAUCACCCAUGUAGAGA [zrzmullin]	33.2 nM
ACAUGAGGAUCACCCAUGUAUGACUAUCCUCGAGGACCGGUACGGCCGCCACUCGAACGAGUGGCUCGCGAGUGCGCACUCGCGA [5' end]	16.6 nM
GGGCCCGGGCCGGAAACGGCCCGGGCCCUGCGAGGACCGGUACGGCCGCCACUCGCUCGAGUGGGUACAUGAGGAUCACCCAUGU [#17 Exclusion Tryptophan A]	45.8 nM
GGACCAGGGAGCGAUACCAGCUUGAGUGUGCUGGCCAGGCACAUGAGGAUCACCCAUGUAGGCCCUUGGCAGCGCUCCCUGGUCC [#1 Exclusion - Theophylline B Attempt #28 (HarryS)]	16.5 nM
AAUACCGGUCCUCGAGGGUGAUCCUCAUGACGAGGACCGGUACGGCCGCCACUCGAUAACAUGAGGAUCACCCAUGUAAUCGAGU [|T'-M'-Trp-Ms2|_Design7b]	70.4 nM

Same assay, conditions: Eterna round: R107; input ligand: theophylline 2 mM

Sequence	apparent KD of MS2 coat protein
GCUGUACCAUGAAGGAGCGUCACGGAGUGCGAAUACACAUGAGGAUCACCCAUGUUUUUAUGGCAGGUAGGUCGCAUGGUACAGC [#02 Same State - Arginine B]	28.4 nM
ACAUGAGGAUCACCCAUGUAAUAAUCAGAAGGAGCGUGGAAUAACACAGGUAGGUCGCUGAUGUUUGGUUAAAUGUAAUCGUGUA [JR_SSArginiA_Sub001]	17.6 nM
GGUCUCGAGAGCGAUACCAGCUUGAUCGUACUGGCCUGGUACAUGAGGAUCACCCAUGUAAGCCCUUGGCAGCGCUCUCGAGACC [#1 Exclusion - Theophylline B Attempt #7 (HarryS)]	30.1 nM
AGAUUCGACACGGCCGCCACUCGAGACGGAUUUCCGAGUGUCGAACAUGAGGAUCACCCAUGUCCGAGGACCGGGUGUUGAGUCU [XTryp B #10]	51.1 nM
AGUUCCAGGUCGGCCGCCACUGGCAUGGCCGGUCCUCGGACUUACAUGAGGAUCACCCAUGUGAACAGGACCGGGACCGCAUGGG [Exclusion Tryptophan B GF 24]	57.2 nM
UUAAUCAGGUUAGAAAACUAAUUUGCAGAAGGAGCGUGAUAAAACACAGGUAGGUCGCUGAAGGGAACAUGAGGAUCACCCAUGU [AstrosSSArgA#10]	28.5 nM
GGAUAGGACACGGCCGCCACUAGCUAGGAUACUAGCAACAUUUCCUCACUUGAGGAUCACCCAGGUAGGACCGGGUGUCCUAUCG	1430 nM
AAAUAAACCUCGGCCGCCACUCGCCAUGAGGAUCACCCAUGUAACAUGAGGAUCACCCAUGUACAGAGGACCGGGAGGUCCUAGU [Same State Tryptophan B GF 13]	87.1 nM
UGGUUUCGGUCAAUCACCGGUCCCUGGGAAGGAGCGGACUCAUGUCCAGGUAGGUCGCCCAGACAUGAGGAUCACCCAUGUGACA [Tiusdiin]	142 nM
UGUAUGUGAUUUGAUACCAGACCAGCUGGUGGUACUUGAGGAACACCCAAGUAGGUUUGGGUCCCUUGGCAGCAAAUCGCAUACU [SS Theo B #24 Ms11]	29.9 nM
AUACAUGAGGAUCACCCAUGUGAUGGCCGGCGAGGACCGGUACGGCCGCCACUCGUGAUCCGUCCUGAAAGCAAAGCUUCCAGCA [Terion]	437 nM
AAAAUCCUACUUGAGGAUCACCCAGGUGAAGGAGCGCCCGAAAGGGCAGGUAGGUCGCACCUGAGGAUCACCCUGGUAACCUAAA [ArgEX 9 #DoubleMS2 #OpenEnded]	211 nM
CCCAGUCAUAGCAGGGCAAAUAUACUCGAAGGAGCGUCAUAGUAGGCAGGUAGGUCGCGAGACAUGAGGAUCACCCAUGUAGAGA [cccmullin]	44.2 nM
ACAUGAAGAACAGCGGUGGGCGCGCUCGAUACCAGUAUUUUAAAUUACCCUUGGCAGCGACAUGAGGAUCACCCAUGUGAGAUGA [XTheo A #5]	33.8 nM
GGAUAGGACACGGCCGCCACUAGCUAGGAUACUAGCAACAUUUCCUCAGAUGAGGAUCACCCAUCUAGGACCGGGUGUCCUAUCG	33.6 nM
UGUAUGUGAUCUGAUACCAGUCCAACUGGUAAAAGAUGAGGAUCACCCAUCUAAAAUUGGGACCCUUGGCAGCAGAUCGCAUACU	13.7 nM
GGGUGCGGCACGGCCGCCACUGCGGUGGUGUGACAUGAGGAUCACCCAUGUUGUCAUGCGGCCCUUAGGACCGGGUGCCGUGCCC [#1 Exclusion - Tryptophan B Attempt #13 (HarryS)]	62.4 nM
